Source: article PMC3215730

B1: recombinant human GST-tagged RIL (natural protein)
chain: MPHSVTLRGPSPWGFRLVGGRDFSAPLTISRVHAGSKAALAALCPGDLIQAINGESTELMTHLEAQNRIKGCHDHLTLSVSRPEGRSWPSAPDDSKAQAHRIHIDPEIQDGSPTTSRRPSGTGTGPEDGRPSLGSPYGQPPRFPVPHNGSSEATLPAQMSTLHVSPPPSADPARGLPRSRDCRVDLGSEVYRMLREPAEPVAAEPKQSGSFRYLQGMLEAGEGGDWPGPGGPRNLKPTASKLGAPLSGLQGLPECTRCGHGIVGTIVKARDKLYHPECFMCSDCGLNLKQRGYFFLDERLYCESHAKARVKPPEGYDVVAVYPNAKVELV

Legend:
[1] = target: Baculovirus-produced recombinant purified active human Src (kinase assays) (human) (UniProt P12931); experiment: kinase activity titration (filter-binding Src kinase assay, kinetic fit)
[2] = target: Baculovirus-produced recombinant purified active human Src (kinase assays) (human) (UniProt P12931); experiment: kinase activity titration (filter-binding Src kinase assay, kinetic fit); apparent; increasing RIL alone titrated in the Src kinase reaction with peptide and ATP substrates

| Molecule | Kd [1] | Kd RIL in the presence of F4 (Δ225–230) [1] | Kd RIL in the presence of F6 (Δ221–230) [1] | Kd [2] |
| --- | --- | --- | --- | --- |
| NS1 wild type (230 aa) from A/Turkey/Italy/977/99 H7N1 (F3) (natural protein) | 400 nM |  |  |  |
| B1 |  | 230 nM | 470 nM | 80 nM |
